Substrate: CCCC(=O)Oc1ccc([N+](=O)[O-])cc1
Assay: purified protein
Type: biochemical, Qipengyuania seohaensis
Details: standard assay: 50 mM CHES pH 10.0, 40 °C, 0.05-4.0 mM substrate

B1: E69 (Qipengyuania seohaensis) (protein)
chain: MRDHGERFVVEAEERRTVSIERTNLGGVNIAWVSPSDKVPSSDGPLIFNLHDGGFALNDGDAALYTAVSFAELQQLDSVSVDYRLTPQHPYPAALEDAVAAYAVIKRKMPGRPIVVYGLSAGGGLGAAFLLKVKQLGLPMPEAAVLNSPWSDVSMNSDTLATLDCYDPLLGGSRPTLKPLANSYAAGADPQDPLVSPVYGDWEGVDVPVLLISGTRDVMLGDTVRLHRAMWRAGVPAELIVNEGMWHAFSVEPEFEAMIADSARFIRHISAKED
notes: expressed in E. coli BL21 (DE3) from pSMT3 as N-terminal His6-SUMO fusion, tag cleaved with ULP1 and removed; about 30 kDa on SDS-PAGE
Km: 2200 ± 300 µM

Reference: paper PMC5702849, “A Novel Halotolerant Thermoalkaliphilic Esterase from Marine Bacterium Erythrobacter seohaensis SW-135” (Frontiers in Microbiology, 2017)
